Test results published in paper PMC6886308, “NADP(H) allosterically regulates the interaction between ferredoxin and ferredoxin‐NADP^+ reductase” (FEBS Open Bio, 2019).
One block for each molecule: values may come before it.

Legend:
maize leaf FNR (L‐FNR) = biological target: T1, maize leaf FNR (L‐FNR) (Zea mays, UniProt Q9SLP6); experiment: ITC of Fd I binding to FNR in presence of ligand; Fd-affinity chromatography; conditions: 0-500 μM NADP+ (ITC); 50 mM Tris/HCl, pH 7.5; 298 K; allosteric on Fd binding
T1 construct: gene L-FNRI; recombinant mature leaf FNR, FAD flavoprotein, C-terminal Tyr314
T1 sequence (Q9SLP6 42-355): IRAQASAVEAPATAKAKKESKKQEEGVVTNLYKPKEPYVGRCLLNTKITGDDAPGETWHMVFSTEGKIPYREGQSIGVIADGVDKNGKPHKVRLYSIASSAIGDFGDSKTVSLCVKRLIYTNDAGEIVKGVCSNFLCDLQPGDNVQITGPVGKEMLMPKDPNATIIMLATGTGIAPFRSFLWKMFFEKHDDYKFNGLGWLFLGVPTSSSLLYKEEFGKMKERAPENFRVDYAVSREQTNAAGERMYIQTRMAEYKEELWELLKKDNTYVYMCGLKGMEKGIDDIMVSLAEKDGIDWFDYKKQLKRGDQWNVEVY

[1] = biological target: maize leaf ferredoxin-NADP+ reductase R244Q (maize); experiment: ITC; 500 uM Fd I in the syringe titrated into 50 uM L-FNR in the cell; 50 mM Tris/HCl pH 7.5, no NaCl, 298 K; one set of independent binding sites; 50 uM NADP+
[2] = biological target: maize leaf ferredoxin-NADP+ reductase Y314S (maize); experiment: as above
[3] = biological target: maize leaf ferredoxin-NADP+ reductase R235Q (maize); experiment: as above
[4] = biological target: maize leaf ferredoxin-NADP+ reductase, wild-type (maize); experiment: as above
[5] = biological target: maize leaf ferredoxin-NADP+ reductase R244Q (maize); experiment: ITC; 500 uM Fd I in the syringe titrated into 50 uM L-FNR in the cell; 50 mM Tris/HCl pH 7.5, no NaCl, 298 K; one set of independent binding sites; 500 uM NADP+
[6] = biological target: maize leaf ferredoxin-NADP+ reductase Y314S (maize); experiment: as above
[7] = biological target: maize leaf ferredoxin-NADP+ reductase R235Q (maize); experiment: as above
[8] = biological target: maize leaf ferredoxin-NADP+ reductase, wild-type (maize); experiment: as above
[9] = biological target: maize leaf ferredoxin-NADP+ reductase R244Q (maize)
[10] = biological target: maize leaf ferredoxin-NADP+ reductase Y314S (maize)
[11] = biological target: maize leaf ferredoxin-NADP+ reductase R235Q (maize)
[12] = biological target: maize leaf ferredoxin-NADP+ reductase, wild-type (maize)
[13] = biological target: maize leaf ferredoxin-NADP+ reductase R244Q (maize); experiment: ITC; 500 uM Fd I in the syringe titrated into 50 uM L-FNR in the cell; 50 mM Tris/HCl pH 7.5, no NaCl, 298 K; one set of independent binding sites; 0 uM NADP+
[14] = biological target: maize leaf ferredoxin-NADP+ reductase Y314S (maize); experiment: as above
[15] = biological target: maize leaf ferredoxin-NADP+ reductase R235Q (maize); experiment: as above
[16] = biological target: maize leaf ferredoxin-NADP+ reductase, wild-type (maize); experiment: as above
[17] = substrate: NC(=O)C1=CN([C@@H]2O[C@H](COP(=O)(O)OP(=O)(O)OC[C@H]3O[C@@H](n4cnc5c(N)ncnc54)[C@H](OP(=O)(O)O)[C@@H]3O)[C@@H](O)[C@H]2O)C=CC1; experiment: NADPH-dependent diaphorase assay; format: biochemical, Zea mays; conditions: DCPIP as electron acceptor
Text: NADPH-dependent diaphorase assay on maize leaf FNR (L‐FNR)

Molecule: NC(=O)c1ccc[n+]([C@@H]2O[C@H](COP(=O)(O)OP(=O)(O)OC[C@H]3O[C@@H](n4cnc5c(N)ncnc54)[C@H](OP(=O)(O)O)[C@@H]3O)[C@@H](O)[C@H]2O)c1 [NADP^+]
- ITC of Fd I binding to FNR in presence of ligand; Fd-affinity chromatography (maize leaf FNR (L‐FNR)): The resulting dissociation constant (K d) increased by addition of NADP^+ into the titration reaction

- Kd [1]: 790 nM
- dH [1]: 7.4 kcal/mol
- stoichiometry N [1]: 0.8
- Kd [2]: 2600 nM
- dH [2]: 4.3 kcal/mol
- stoichiometry N [2]: 0.7
- Kd [3]: 780 nM
- dH [3]: 7.3 kcal/mol
- stoichiometry N [3]: 0.7
- Kd [4]: 1600 nM
- dH [4]: 8.8 kcal/mol
- stoichiometry N [4]: 0.7
- Kd [5]: 1100 nM
- dH [5]: 5.8 kcal/mol
- stoichiometry N [5]: 1
- Kd [6]: 2300 nM
- dH [6]: 3.6 kcal/mol
- stoichiometry N [6]: 0.7
- Kd [7]: 1300 nM
- dH [7]: 6.3 kcal/mol
- stoichiometry N [7]: 0.9
- Kd [8]: 3700 nM
- dH [8]: 6.7 kcal/mol
- stoichiometry N [8]: 0.8
- Km for Fd in NADPH-dependent cyt c reduction, at 50 uM, 250 uM, 500 uM and 1 mM NADPH (0.75 to 6.9 uM) [9]: 6.9 µM
- Km for Fd in NADPH-dependent cyt c reduction, at 50 uM, 250 uM and 500 uM NADPH (17, 13, 18 uM; not determined at 1 mM) [10]: 18 µM
- Km for Fd in NADPH-dependent cyt c reduction, at 50 uM, 250 uM, 500 uM and 1 mM NADPH (0.30 to 5.0 uM) [11]: 5 µM
- apparent Km for Fd in NADPH-dependent cyt c reduction, at 50 uM, 250 uM, 500 uM and 1 mM NADPH (3.5 to 44 uM) [12]: 44 µM
- Kd [13]: 760 nM
- dH [13]: 8.3 kcal/mol
- stoichiometry N [13]: 0.7
- Kd [14]: 2200 nM
- dH [14]: 5.6 kcal/mol
- stoichiometry N [14]: 0.7
- Kd [15]: 870 nM
- dH [15]: 8.3 kcal/mol
- stoichiometry N [15]: 0.7
- Kd [16]: 1200 nM
- dH [16]: 9.8 kcal/mol
- stoichiometry N [16]: 0.7
Molecule: maize leaf ferredoxin I (from UniProt P27787 53-150) (natural protein)

B1: maize leaf FNR (L‐FNR) (Zea mays) (protein)
chain: IRAQASAVEAPATAKAKKESKKQEEGVVTNLYKPKEPYVGRCLLNTKITGDDAPGETWHMVFSTEGKIPYREGQSIGVIADGVDKNGKPHKVRLYSIASSAIGDFGDSKTVSLCVKRLIYTNDAGEIVKGVCSNFLCDLQPGDNVQITGPVGKEMLMPKDPNATIIMLATGTGIAPFRSFLWKMFFEKHDDYKFNGLGWLFLGVPTSSSLLYKEEFGKMKERAPENFRVDYAVSREQTNAAGERMYIQTRMAEYKEELWELLKKDNTYVYMCGLKGMEKGIDDIMVSLAEKDGIDWFDYKKQLKRGDQWNVEVY
notes: recombinant mature leaf FNR, FAD flavoprotein, C-terminal Tyr314
- Km [17]: 46 ± 3 µM
- kcat [17]: 76 ± 14 s⁻¹

B2: maize leaf FNR (L‐FNR) (Zea mays; R285Q) (protein)
chain: IRAQASAVEAPATAKAKKESKKQEEGVVTNLYKPKEPYVGRCLLNTKITGDDAPGETWHMVFSTEGKIPYREGQSIGVIADGVDKNGKPHKVRLYSIASSAIGDFGDSKTVSLCVKRLIYTNDAGEIVKGVCSNFLCDLQPGDNVQITGPVGKEMLMPKDPNATIIMLATGTGIAPFRSFLWKMFFEKHDDYKFNGLGWLFLGVPTSSSLLYKEEFGKMKERAPENFRVDYAVSREQTNAAGEQMYIQTRMAEYKEELWELLKKDNTYVYMCGLKGMEKGIDDIMVSLAEKDGIDWFDYKKQLKRGDQWNVEVY
notes: as for B1
- Km [17]: 310 ± 60 µM
- kcat [17]: 139 ± 13 s⁻¹

B3: maize leaf FNR (L‐FNR) (Zea mays; Y355S) (protein)
chain: IRAQASAVEAPATAKAKKESKKQEEGVVTNLYKPKEPYVGRCLLNTKITGDDAPGETWHMVFSTEGKIPYREGQSIGVIADGVDKNGKPHKVRLYSIASSAIGDFGDSKTVSLCVKRLIYTNDAGEIVKGVCSNFLCDLQPGDNVQITGPVGKEMLMPKDPNATIIMLATGTGIAPFRSFLWKMFFEKHDDYKFNGLGWLFLGVPTSSSLLYKEEFGKMKERAPENFRVDYAVSREQTNAAGERMYIQTRMAEYKEELWELLKKDNTYVYMCGLKGMEKGIDDIMVSLAEKDGIDWFDYKKQLKRGDQWNVEVS
notes: as for B1
- Km [17]: 0.27 ± 0.08 µM
- kcat [17]: 41 ± 6 s⁻¹

B4: maize leaf FNR (L‐FNR) (Zea mays; R276Q) (protein)
chain: IRAQASAVEAPATAKAKKESKKQEEGVVTNLYKPKEPYVGRCLLNTKITGDDAPGETWHMVFSTEGKIPYREGQSIGVIADGVDKNGKPHKVRLYSIASSAIGDFGDSKTVSLCVKRLIYTNDAGEIVKGVCSNFLCDLQPGDNVQITGPVGKEMLMPKDPNATIIMLATGTGIAPFRSFLWKMFFEKHDDYKFNGLGWLFLGVPTSSSLLYKEEFGKMKERAPENFRVDYAVSQEQTNAAGERMYIQTRMAEYKEELWELLKKDNTYVYMCGLKGMEKGIDDIMVSLAEKDGIDWFDYKKQLKRGDQWNVEVY
notes: as for B1
- Km [17]: 500 ± 120 µM
- kcat [17]: 60 ± 7 s⁻¹
